In patent publication US20240010748A1 one finds MFI (Max) data, which are given here for one molecule.

This test addresses murine Claudin 18.2 (mCLDN18.2) on stably-transfected HEK293 cells (murine) (UniProt P56857). In words: FACS on HEK293-mCLDN18.2 cells.

B1: h160C9AA (antibody, human IgG1, lambda, L234A L235A, V domains shown)
VH: EVKLVESGGGLVQPGGSLKLSCAASGFTFNTYAMNWVRQAPGKGLEWVARIRSKYNNYATYYADSVKDRFTISRDDAKNTLYLQMNNLRTEDTAVYYCVRHGNFGNSYVSWFAYWGQGTLVTVSS
VL: QAVVTQEPSLTVSPGGTVTLTCRSSTGAVTTSNYANWVQQKPGQAPRGLIGGTNKRAPGTPARFSGSLLGGKAALTLSGAQPEDEAEYYCALWYSNLWVFGGGTKLTVLG
In turn, B1 returned an MFI (Max) of 543 MFI.
